Tested on: bacteria
Experiment: Saturation binding / Scatchard analysis of glycoprotein binding to bacteria
Details: ALP to bacteria
Text: There are several methods used to measure binding affinity. The methods of Lineweaver-Burke and Eadie-Hofstee are most popular. The data is used to create a Scatchard plot, where the X axis is the glycoprotein bound and the Y axis is glycoprotein bound divided by the free glycoprotein. From this graph the number of binding sites (also called Bmax, receptor number) is the X intercept and binding constant (also called affinity constant, Kd, or the equilibrium dissociation constant) is the negative reciprocal of the slope. Changes in slope reflect changes in the nature of binding sites and are often used to separate high affinity binding from low affinity binding sites. Commercially available software (GraphPad software Inc) exist to perform this analysis. Only high affinity binding was used in the instant experiments.
Experimentally, saturation binding experiments are used measure glycoprotein binding at equilibrium at various concentrations of the glycoprotein. The saturation curve is a first constructed to plot the concentration of glycoprotein ligand on the X axis versus the all glycoprotein bound on the cell expressed as concentration of glycoprotein bound/number of bacteria cells on the Y axis. […] This same data is next plotted as a Scatchard plot with the number of binding sites and binding constants determined for the pairs of glycoprotein and bacteria tested. […]

B1: ALP: bovine intestinal alkaline phosphatase, glycoprotein enzyme that binds bacteria and serves as label (protein, UniProt P19111 20-506, looked up)
Intestinal-type alkaline …: LVPVEEEDPAFWNRQAAQALDVAKKLQPIQTAAKNVILFLGDGMGVPTVTATRILKGQMNGKLGPETPLAMDQFPYVALSKTYNVDRQVPDSAGTATAYLCGVKGNYRTIGVSAAARYNQCKTTRGNEVTSVMNRAKKAGKSVGVVTTTRVQHASPAGAYAHTVNRNWYSDADLPADAQMNGCQDIAAQLVNNMDIDVILGGGRKYMFPVGTPDPEYPDDASVNGVRKRKQNLVQAWQAKHQGAQYVWNRTALLQAADDSSVTHLMGLFEPADMKYNVQQDHTKDPTLQEMTEVALRVVSRNPRGFYLFVEGGRIDHGHHDDKAYMALTEAGMFDNAIAKANELTSELDTLILVTADHSHVFSFGGYTLRGTSIFGLAPSKALDSKSYTSILYGNGPGYALGGGSRPDVNDSTSEDPSYQQQAAVPQASETHGGEDVAVFARGPQAHLVHGVEEETFVAHIMAFAGCVEPYTDCNLPAPTTATSIPD
- binding constant (Scatchard analysis, high affinity binding): 5×10^+6
- number of binding sites (estimated from the Scatchard analysis): 590

From patent US20060141546A1, “Bacterial test method by glycated label binding” (priority 2002, published 2006)
